This note sets out measurements from patent US20140255415A1 (Novartis, published 2014).

Numbering of substitutions follows the chain as printed.

Test [1] deals with T1, human LINGO-1-ΔLRR-Fc (Igleader-hsLINGO-1-ΔLRR-Fc) (human, UniProt Q96FE5 40-556).
T1 construct: Heterologous secretion signal left out; also called human LINGO-1 lacking the LRR domain
T1 sequence: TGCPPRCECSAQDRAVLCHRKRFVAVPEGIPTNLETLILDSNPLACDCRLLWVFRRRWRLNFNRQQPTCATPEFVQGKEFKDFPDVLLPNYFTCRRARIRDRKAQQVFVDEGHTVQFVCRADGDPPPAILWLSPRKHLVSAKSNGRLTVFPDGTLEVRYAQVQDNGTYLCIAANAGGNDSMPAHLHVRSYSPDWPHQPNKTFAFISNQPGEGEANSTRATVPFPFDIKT
Briefly: ELISA, Fc fusion captured via goat anti-human IgG Fc, Fab detected with AP-conjugated secondary and AttoPhos.

The target in test [2] is T2, human LINGO-1-Fc fusion protein (natleader-hsLINGO-1-Fc) (human, UniProt Q96FE5 42-556).
T2 construct: also called human recombinant LINGO-1-Fc; captured human LINGO-1-Fc; not shown: protein lette
T2 sequence: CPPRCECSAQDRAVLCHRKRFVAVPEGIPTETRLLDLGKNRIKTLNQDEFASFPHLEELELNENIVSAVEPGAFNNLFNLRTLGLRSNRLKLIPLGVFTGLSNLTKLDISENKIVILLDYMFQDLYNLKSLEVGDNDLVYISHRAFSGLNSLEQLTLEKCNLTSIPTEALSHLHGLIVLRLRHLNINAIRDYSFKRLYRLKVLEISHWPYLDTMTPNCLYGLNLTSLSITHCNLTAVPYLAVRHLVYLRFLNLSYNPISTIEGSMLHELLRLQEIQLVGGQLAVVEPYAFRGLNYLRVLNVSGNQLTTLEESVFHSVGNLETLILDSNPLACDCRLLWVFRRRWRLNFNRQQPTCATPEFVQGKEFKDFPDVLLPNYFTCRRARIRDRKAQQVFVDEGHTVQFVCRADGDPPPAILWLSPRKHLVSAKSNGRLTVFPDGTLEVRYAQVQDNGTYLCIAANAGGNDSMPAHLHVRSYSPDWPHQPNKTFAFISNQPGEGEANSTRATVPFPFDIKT
The test is described as above.

Test [3] concerns the target T3, human NgR-Fc fusion protein (R&D Systems) (human, UniProt Q9BZR6 27-447, limits assumed).
T3 construct: Commercial protein; also called captured human NgR-Fc; not shown: Fc part of the commercial fusion protein; not described
T3 sequence (looked up): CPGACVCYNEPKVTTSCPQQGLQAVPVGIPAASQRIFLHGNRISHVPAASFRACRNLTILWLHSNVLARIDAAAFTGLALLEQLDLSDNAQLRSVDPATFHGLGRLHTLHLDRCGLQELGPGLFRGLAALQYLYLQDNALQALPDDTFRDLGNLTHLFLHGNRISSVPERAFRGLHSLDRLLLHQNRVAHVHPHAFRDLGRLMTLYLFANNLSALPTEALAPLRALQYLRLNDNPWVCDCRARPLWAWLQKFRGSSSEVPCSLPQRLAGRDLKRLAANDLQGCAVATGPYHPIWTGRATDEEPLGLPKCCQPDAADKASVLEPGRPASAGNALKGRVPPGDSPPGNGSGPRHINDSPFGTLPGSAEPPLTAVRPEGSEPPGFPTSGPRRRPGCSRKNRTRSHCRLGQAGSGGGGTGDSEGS
The test is described as above.

In test [4] the target is T1, human LINGO-1-ΔLRR-Fc …. Briefly: ELISA, captured Fc fusion protein. Background: ELISA stands for enzyme-linked immunosorbent assay.
The target in test [5] is T3, human NgR-Fc fusion protein (R&D …). Briefly: ELISA, captured Fc fusion protein.
Test [6] addresses human LINGO-1 expressed on CHO-K1 cells (CHO-K1-hLINGO-1) (human) (UniProt Q96FE5). Briefly: apparent KD, FACS saturation binding on CHO-K1-hLINGO-1 cells, Fab format.
Test [7] concerns the target Unrelated Fc. Briefly: ELISA, Fc fusion captured via goat anti-human IgG Fc, Fab detected with AP-conjugated secondary and AttoPhos.
Test [8] has as its target T4, rat LINGO-1 expressed on CHO-K1 cells (CHO-K1-rLINGO-1) (rat, UniProt A0A8I5ZPI2 34-614).
T4 construct: range 34-614; not shown: 2 amino acid residue linker
T4 sequence: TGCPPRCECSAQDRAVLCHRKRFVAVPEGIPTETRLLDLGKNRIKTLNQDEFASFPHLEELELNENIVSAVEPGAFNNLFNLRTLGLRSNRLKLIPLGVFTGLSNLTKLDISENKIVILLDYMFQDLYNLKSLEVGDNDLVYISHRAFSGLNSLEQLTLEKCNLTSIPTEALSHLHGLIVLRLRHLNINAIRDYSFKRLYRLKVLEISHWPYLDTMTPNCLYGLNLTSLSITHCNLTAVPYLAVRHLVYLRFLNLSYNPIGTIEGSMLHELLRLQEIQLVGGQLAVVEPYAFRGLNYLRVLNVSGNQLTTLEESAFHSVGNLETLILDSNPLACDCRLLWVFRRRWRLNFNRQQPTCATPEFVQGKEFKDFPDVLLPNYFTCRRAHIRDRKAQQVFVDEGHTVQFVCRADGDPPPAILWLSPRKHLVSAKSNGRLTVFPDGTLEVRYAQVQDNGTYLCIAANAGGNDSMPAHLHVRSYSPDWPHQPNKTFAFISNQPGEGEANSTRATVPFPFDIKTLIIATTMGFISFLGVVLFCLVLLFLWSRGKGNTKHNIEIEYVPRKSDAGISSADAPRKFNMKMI
Briefly: apparent KD, FACS saturation binding on CHO-K1-rLINGO-1 cells, Fab format. The procedure: (§1) Cell based affinity of anti-LINGO-1 specific antibodies is determined by FACS saturation binding experiments. […] Otherwise the staining procedure is done identical to the FACS staining procedure described above.
(§2) In detail, CHO-K1-hLINGO-1, CHO-K1-cmLINGO-1 or CHO-K1-rLINGO-1 are detached from culture flasks by versene, washed with FACS buffer and resuspended in FACS buffer. Purified anti-LINGO-1 Fabs are serially diluted in FACS buffer and spread into round bottom 96-well microtiter plates (NUNC™, Wiesbaden, Germany). For each concentration, duplicate wells are incubated with 1.25×10⁴ cells for 30-60 min on ice in a total volume of 100 μl.

Test [9] has as its target T5, cynomolgus monkey LINGO-1 expressed on CHO-K1 cells (CHO-K1-cmLINGO-1) (cynomolgus monkey, UniProt Q9N008 34-614).
T5 construct: range 34-614; also called Cynomolgus LINGO-1; not shown: 2 amino acid residue linker
T5 sequence (looked up): T4 sequence with G261S, V286M, A315V, H386R, S494P
Briefly: apparent KD, FACS saturation binding on CHO-K1-cmLINGO-1 cells, Fab format. The procedure:
as §1, §2

B1: anti-LINGO-1 Fab 4784 (Fab, V domains shown)
VH: QVQLKESGPALVKPTQTLTLTCTFSGFSLSSSGVGVGWIRQPPGKALEWLAHIGSDDDKYYSTSLKTRLTISKDTSKNQVVLTMTNMDPVDTATYYCARNQQYGDGYPGYFDYWGQGTLVTVSS
VL: DIELTQPPSVSVAPGQTARISCSGDNIGNYYVYWYQQKPGQAPVLVIYEDTNRPSGIPERFSGSNSGNTATLTISGTQAEDEADYYCQSYDNLHEQVFGGGTKLTVLG
In the case of B1, the “relative fluorescence units (RFU)” value was found to be 49 RFU in test [1], 98 RFU in test [2], 68 RFU in test [3] and 52 RFU in [7]. Besides, the binding result in test [4] and in [5] was “no binding” throughout. Also, the Kd in [6] came out at 14.1 nM; in test [8] it was 24 nM; in test [9], 27.1 nM.
